Measurements: the RNAGym collection of RNA variant scans (doi:10.1073/pnas.2313332121)
Variants at the floor of the assay were thinned out.

B1: TPR 5TU (parent)
chain: GGAUCUUCUCGAUCUAACAAAAAAGACAAAUCUGCCACAAAGCUUGAGAGCAUCUUCGGAUGCAGAGGCGGCAGCCUUCGGUGGCGCGAUAGCGCCAACGUUCUCAACUAUGACACGCAAAACGCGUGCUCCGUUGAAUGGAGUUUAUCAUG

Variants of: B1
Assay: polymerase ribozyme fitness, log enrichment relative to wild type (log ratio); higher = more active; in vitro selection for triplet polymerase activity
Method in brief: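 Mutant libraries for each subunit of a heterodimeric triplet polymerase ribozyme were made by PCR and then transcribed. Each library underwent one round of in vitro selection in triplicate: annealing with a biotinylated primer, the partner subunit and triplets, frozen incubation at −7 °C, gel excision of extended constructs, streptavidin-bead capture and RT-PCR. Input and output libraries were Illumina-sequenced, and only genotypes with ≥10 input reads and ≥1 read per output were kept. Fitness is the logarithm, base 2, of genotype enrichment over wild-type enrichment, computed from inverse-variance-weighted replicate averages.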

Row | Variant | polymerase ribozyme fitness (log ratio)
1 | G58A C149A | -3.67
2 | A12C A21C A23C G136A | ≤ -4.2
3 | C14G G83A G117U U127G | ≤ -4.2
4 | U6A A19C A24U A28G G141C G152A | -3.96
5 | G59A G92C | -2.78
6 | A40U G71U C85G | ≤ -4.2
7 | A60C C76U C93U | -3.48
8 | A24U A52C C87A | ≤ -4.2
9 | C57A A91G U101A A142G | -4.08
10 | U53G C75G C76U C96A A115C | ≤ -4.2
11 | A37C A39C C95U G133U | ≤ -4.2
12 | A52G G92A | -3.13
13 | U31C C116A | 1.96
14 | A49U C93A | -3.3
15 | A22C A26G A30U U45G G74C C103G G140U | ≤ -4.2
16 | C96G G112A | -4.07
17 | C10U U53A C54U U55A C75G C105U G143U U145C U148A | ≤ -4.2
18 | C54A U56A C93A A98U A138C U151G | ≤ -4.2
19 | A107G G141C | -3.86
20 | G34C G74A U109A C123U C149U | ≤ -4.2
21 | C75U A91G A147C | -3.68
22 | G68A G84U C131G G143U | ≤ -4.2
23 | A24U C99U | -1.46
24 | C85A G136A | -1.05

Row | Variant | polymerase ribozyme fitness (log ratio)
25 | C76U C93U C105U | -0.938
26 | U61G C93G A98U A138C | ≤ -4.2
27 | G86A U148C | -1.5
28 | A49G U53C C114U | -2.54
29 | C10U A40G | -4.12
30 | A29U U44G A49C C103G G141C | ≤ -4.2
31 | U31A U55A C95U G128U A137C G143U | ≤ -4.2
32 | A16C C32G U56G C63G | ≤ -4.2
33 | U55A C93A | -2.96
34 | C38A C76U | -0.21
35 | A21U C95U C99U | -0.768
36 | G84A U148G | -3.25
37 | A39U U82A A106G | -1.88
38 | A19C A29U C54G C108U | ≤ -4.2
39 | A21U C27G C93U A138C A147C | ≤ -4.2
40 | A73C A142C | ≤ -4.2
41 | C76U U78A A107U G126A | ≤ -4.2
42 | C38U C57G G58A C116A A138G | ≤ -4.2
43 | G92C C95A | -2.12
44 | A73G C76U A142U | -2.11
45 | G50A U53A C85A U109G A115G C116G G126C | ≤ -4.2
46 | G34A C85A G133A | ≤ -4.2
47 | C43U C54U U61A A64C G84U U127A C131G A142G | ≤ -4.2
48 | C93A C95A U104A G141C | ≤ -4.2

Row | Variant | polymerase ribozyme fitness (log ratio)
49 | U13G G42A U56G G86U G133C G143U U146C | ≤ -4.2
50 | G25U A52C C87A U90G A142G | ≤ -4.2
51 | A37U G50C U78C A98U U134C | ≤ -4.2
52 | G65U U82A C93U C95G | ≤ -4.2
53 | A17U G50A C87G G141A | ≤ -4.2
54 | C54A C95U | -2.22
55 | C35U U135A | -0.972
56 | A29U A49C G68U A73C A91C C103G | ≤ -4.2
57 | C54A C87G A98G | ≤ -4.2
58 | C5G G84U | -2.38
59 | C18U U31G A37C C54U A91C U134C U146C | ≤ -4.2
60 | A40G A49G | -3.58
61 | A17C A22U A37U A60G G71U U78A C93A U104G A122C | ≤ -4.2
62 | G25A A28U G94A U102A A137C | ≤ -4.2
63 | C35G C36G G128U | ≤ -4.2
64 | C5A G11A G84A C95A C103U C116U | -1.5
65 | U7A C18A U33G A66U G84A G100A G124C | ≤ -4.2
66 | U15A A20U | -0.122
67 | C10A C93G | ≤ -4.2
68 | G50U A113C U139G | -3.93
69 | C10G A26C C75A G84A | ≤ -4.2
70 | A22C G46A G59C A91C C99G U101G C116G A138C | ≤ -4.2
71 | U6A U53A G86A A91C G128C | ≤ -4.2
72 | A23G A47C | -2.96

Row | Variant | polymerase ribozyme fitness (log ratio)
73 | C72U A91U A106C A115G A119U G143A U145G U151G | ≤ -4.2
74 | U7G C93G U139A | ≤ -4.2
75 | A17U C87U U90C C99G | -3.69
76 | C8A A22C C35U G48C A73U | ≤ -4.2
77 | C10G G42U C63U C95A C123G | ≤ -4.2
78 | G94A | -0.622
79 | A41G G88U | -3.82
80 | C14U U15G A41C A49C C54G C75G C96U C123A A137U G141A G143C | ≤ -4.2
81 | G34A A47U G50A C63U | -2.2
82 | A22G A24U G59C C96G A98U | 0.453
83 | C93G G94U C108G | ≤ -4.2
84 | A115C G124U U144G | -3.11
85 | U53A | -0.874
86 | G59A G84A | -2.24
87 | U55G C69A A97U A119U G141A | -1.39
88 | C38G G50C G65U G84A C96U C99U U111G G143A | ≤ -4.2
89 | G74A G92C | -2.84
90 | A26U A52G C85U | -1.69
91 | U45G G50A A73C C93U C96U C99A C108A G112C G124U U127G A142G C149G | ≤ -4.2
92 | G42A U53A U77G A91U A115G U135G | ≤ -4.2
93 | A17C U33C G83A G141U | ≤ -4.2
94 | A60U G86A A150C | ≤ -4.2
95 | U7C C27G C96U | ≤ -4.2
96 | A30U C51G A98U G136U | ≤ -4.2

Row | Variant | polymerase ribozyme fitness (log ratio)
97 | U53A G70C C76A G86U A98U | ≤ -4.2
98 | A60U C87U | -1.36
99 | U4A C10U A26U U31G A39G C57A C85A U90G A113C | ≤ -4.2
100 | A21G A49G C63G C96U A98U C125G | -0.663
101 | U4C C5G U55A C75A G88C G133U | -4.17
102 | C10G A73G G92U | ≤ -4.2
103 | U53A C54U C85G | -2.55
104 | G81C G92A | -3.5
105 | U13G U15A C51U C96A A121G | -2.76
106 | G83C G117A | 0.556
107 | C14G A60U G86U | ≤ -4.2
108 | G50C G65A | -3.27
109 | C57A A89G A91G U145C U151G | ≤ -4.2
110 | G58A A73G G88C A150U | ≤ -4.2
111 | A89C G143A | -0.0918
112 | C10G A20G G50U G59C C87U | ≤ -4.2
113 | G84U C96A | -2.84
114 | A23U A29G U101C | ≤ -4.2
115 | A3G U53C A60C G62C A91G U104C C118A A120U U134G | ≤ -4.2
116 | A30U A40U C87G C103G G141A | -3.9
117 | A12G C93G A98G G141C | -2.52
118 | U55C G74C G124A | -4.12
119 | C51U G58A G92C G136A U148C | -3.3
120 | C93A C105A | ≤ -4.2

Row | Variant | polymerase ribozyme fitness (log ratio)
121 | C38U A39C C95U | -2.34
122 | C54A U102A | -2.71
123 | C35G U53G A64C C79G U109A A115U G128C A142G | ≤ -4.2
124 | A37U A60U C75U C96A U111A | ≤ -4.2
125 | G84U U144G | -0.698
126 | C63U C75A G84A C118G A120G | ≤ -4.2
127 | A22C G84C G133U | ≤ -4.2
128 | U44G G70C G140U | ≤ -4.2
129 | G50C C93A C103G A113G A115U G140C | ≤ -4.2
130 | C5A A16C A19U U61A | -2.61
131 | U9A A23U C32G C54G G92U U101C G140U | ≤ -4.2
132 | A89G U134C | -0.372
133 | U55A G81A G86A U109G A150G | ≤ -4.2
134 | G42A A47C U55A C85U | ≤ -4.2
135 | C57A A98G C123G U145G | 0.398
136 | A21C U56A C93A A121C U146G C149U | -2.29
137 | C85A C125G | -1.13
138 | C18U G25U G42C A73U G83U C93U A106G A121C U144A | ≤ -4.2
139 | A52G G152C | -3.59
140 | C85U C95G | -2.03
141 | A23G U44A G88A | -4.1
142 | A17C G68A G83A C116A G128A | ≤ -4.2
143 | U134A A142G U144G | -2.83
144 | A16C A21U A39C U44A U45A A49G G84A G126U | ≤ -4.2

Row | Variant | polymerase ribozyme fitness (log ratio)
145 | A28U U45A C57U A60C G84U A98U G117C | ≤ -4.2
146 | C93A C118U | -3.29
147 | U6C U53A G59A G83A U90G C118U C131U A137G A138C | ≤ -4.2
148 | C85G G100A | ≤ -4.2
149 | C87G C99U C116G | -3.37
150 | A21G A26C A66U C87G A115C U134C U146A | ≤ -4.2
151 | C35G C75U A91U U148C A150G | ≤ -4.2
152 | C18G C51U C87G C99A U101C C118U G136A | ≤ -4.2
153 | C51A U56A C95A A98U | -1.46
154 | G117A | 0.231
155 | A29C A37U C108U | -4.09
156 | A20U U33G G42U C63G G71A A113G | ≤ -4.2
157 | G58C A66C G67A A89C U111C C116A C129G U148A | ≤ -4.2
158 | C36U C51G A107U G128A U139G | ≤ -4.2
159 | A16U G84A | -2.41
160 | A49C G81C C85U A98U U104C | ≤ -4.2
161 | A26U C36G U134A G143U U144C | ≤ -4.2
162 | A19U G143U | -2.25
163 | A22C A29U A41G G50C U77A C85U C93G G141C | ≤ -4.2
164 | G58C C72A A110C A147G A150C | ≤ -4.2
165 | A73G U134C | 0.53
166 | C14A C38U G84U | -3
167 | U82G A97G A98G C118A A119C G140C | ≤ -4.2
